The values that follow come from patent US20230212272A1 (LONGBIO PHARMA SUZHOU, published 2023).

Test [1] concerns the target T1, human C5 antigen (human, UniProt P01031 19-673; P01031 678-1676).
T1 construct: The later ELISAs detect it with an anti-histidine antibody, so it carries a His tag; also called complement component 5
Kind of test: BLI (ForteBio Octet).

The target in test [2] is T2, C5 of normal human serum (NHS) (human, UniProt P01031 19-1676). The test is described as follows: cell-based or functional assay.
Test [3] has as its target T1, human C5 antigen. The test is described as follows: ELISA, antibody coated, human C5 titrated; EC50 is the antigen concentration.
Method: The wells were blocked with 2.5% skimmed milk dissolved in a phosphate-buffered saline (PBS) for 1 hour, and washed with a PBST solution (a PBS solution containing 20% Tween). Then, 100 μL of the human C5 gradient diluent (the C5 was diluted to 1 ug/ml, followed by 3 X dilution to give 7 gradients, with 100 μL/well) was added into each well, and incubated at room temperature for 1 hr.
EC₅₀ can be used to evaluate the concentration of antigen at the 50% binding capacity of various antibodies to the antigen.
For test [4], the target named is T2, C5 of normal human serum (NHS). The test is described as follows: cell-based or functional assay. This is another data set of the same source.

B1: humanized antibody 16H46L39am (antibody, human IgG1, kappa, L234A L235A, V domains shown)
VH: QVQLVQSGAEVKKPGASVKVSCKASGYTFTNYGMNWVRQAPGQGLEWMGWINTYTGEPTYADDFKGRFTFTLDTSTSTAYLELSSLRSEDTAVYYCARTKVPLYFAYAMDYWGQGTLVTVSS
VL: DIQLTQSPSSLSASVGDRVTITCKASQSVDYEGDSYLNWYQQKPGKAPKLLIYAASNLESGIPSRFSGSGSGTDFTLTISSLQPEDFATYYCQQSNEDPSTFGGGTKVEIKR
In the test with human C5 antigen [1], B1 gave a Kd of 0.369 nM, a koff of 7.86e-05 s⁻¹ and a kon of 213000 M⁻¹ s⁻¹. Moreover, in test [2], the “IC50 (ng/ml), classical pathway (CP) hemolysis inhibition” value (from here on “IC50 … (CP) hemolysis inhibition”) stood at 330 ng/mL and the “IC90 (ng/ml), classical pathway (CP) hemolysis inhibition” value (“IC90 … (CP) hemolysis inhibition” for short) is 507 ng/mL. Moreover, the response with human C5 antigen [3] was half-maximal at 0.169 µg/mL (EC50).

B2: humanized antibody 16H1L2m (antibody, human IgG1, kappa, L234A L235A, V domains shown)
VH: QVQLVQSGSELKKPGASVKVSCKASGYTFTNYGMNWVRQAPGQGLEWMGWINTYTGEPTYADDFKGRFVFSLDTSVSMAYLQISSLKAEDTAVYYCARTKVPLYFAYAMDYWGQGTLVTVSS
VL: DIVLTQSPSSLAVSLGERATINCKASQSVDYEGDSYLNWYQQKPGQPPKLLIYAASNLESGIPDRFSGSGSGTDFTLTISSLQAEDVAVYYCQQSNEDPSTFGGGTKVEIKR
As for B2, in the test with human C5 antigen [1], the Kd is 0.359 nM, the koff turned out to be 7.81e-05 s⁻¹ and the kon is 217000 M⁻¹ s⁻¹. Further, in test [2], the “IC50 … (CP) hemolysis inhibition” value turned out to be 347 ng/mL and the “IC90 … (CP) hemolysis inhibition” value is 511 ng/mL. This molecule also returned an EC50 with human C5 antigen [3] of 0.117 µg/mL.

B3: Eculizumab (antibody, human IgG2, kappa, V domains shown)
VH: QVQLVQSGAEVKKPGASVKVSCKASGYIFSNYWIQWVRQAPGQGLEWMGEILPGSGSTEYTENFKDRVTMTRDTSTSTVYMELSSLRSEDTAVYYCARYFFGSSPNWYFDVWGQGTLVTVSS
VL: DIQMTQSPSSLSASVGDRVTITCGASENIYGALNWYQQKPGKAPKLLIYGATNLADGVPSRFSGSGSGTDFTLTISSLQPEDFATYYCQNVLNTPLTFGQGTKVEIKR
B3: in test [4], the “IC50 (ng/ml), inhibition of classical pathway hemolysis of sheep red blood cells by 1% NHS” value was found to be 401 ng/mL. Further, in test [2], the “IC50 … (CP) hemolysis inhibition” value came to 559 ng/mL and the “IC90 … (CP) hemolysis inhibition” value is 1340 ng/mL.

B4: chimeric antibody CHI-16 (antibody, human IgG1, kappa, L234A L235A, V domains shown)
VH: QIQLVQSGPELKKPGETVKISCKASGYTFTNYGMNWVKQAPGKGLKWMGWINTYTGEPTYADDFKGRFAFSLETSASTAYLQINNLKNEDTATYFCTRTKVPLYFAYAMDYWGQGTSVTVSS
VL: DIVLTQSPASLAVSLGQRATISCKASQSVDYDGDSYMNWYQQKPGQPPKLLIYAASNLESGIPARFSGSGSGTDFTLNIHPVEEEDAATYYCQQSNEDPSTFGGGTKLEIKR
B4: the “IC50 (ng/ml), inhibition of classical pathway hemolysis of sheep red blood cells by 1% NHS” value in test [4] was determined as 204 ng/mL. In test [2], the “IC50 … (CP) hemolysis inhibition” value was determined as 302 ng/mL and the “IC90 … (CP) hemolysis inhibition” value came to 500 ng/mL.
